B1: Acyl-CoA-binding protein, P07107 (parent)
chain: MSQAEFDKAAEEVKHLKTKPADEEMLFIYSHYKQATVGDINTERPGMLDFKGKAKWDAWNELKGTSKEDAMKAYIDKVEELKKKYGI

The series covers variants of B1. The following applies: Bos taurus; pH 5.3; 5 °C; GdnHCl; Fluorescence; Sodium acetate 0.02 M; reversible: yes; structure 2ABD; whole UniProt chain shown.

For V78A, the “ddG of mutation (higher = less stable)” value is 1.14 kcal/mol and the unfolding free energy was 6.75 kcal/mol.

For L81A, the “ddG of mutation (higher = less stable)” value was 3.7 kcal/mol and the unfolding free energy worked out at 4.19 kcal/mol.

As for D22H, the “ddG of mutation (higher = less stable)” value stood at 0.56 kcal/mol and the unfolding free energy amounted to 7.33 kcal/mol.

For the variant D22A, the “ddG of mutation (higher = less stable)” value was -0.42 kcal/mol and the unfolding free energy was found to be 8.31 kcal/mol.

As to K53M, the “ddG of mutation (higher = less stable)” value is -0.18 kcal/mol and the unfolding free energy is 8.07 kcal/mol.

As to Y29A, the “ddG of mutation (higher = less stable)” value came to 2.47 kcal/mol and the unfolding free energy was 5.42 kcal/mol.

For Y29F, the “ddG of mutation (higher = less stable)” value is 1.06 kcal/mol and the unfolding free energy came out at 6.83 kcal/mol.

As to K53M K55M, the “ddG of mutation (higher = less stable)” value was -1.01 kcal/mol and the unfolding free energy is 8.9 kcal/mol.

With L16A, the “ddG of mutation (higher = less stable)” value is 3.1 kcal/mol and the unfolding free energy worked out at 4.79 kcal/mol.

Take A35G: the “ddG of mutation (higher = less stable)” value was found to be 1.57 kcal/mol and the unfolding free energy came to 6.32 kcal/mol.

For F6A, the “ddG of mutation (higher = less stable)” value amounted to 2.52 kcal/mol and the unfolding free energy stood at 5.37 kcal/mol.

In the case of T36A, the “ddG of mutation (higher = less stable)” value came out at 1.09 kcal/mol and the unfolding free energy stood at 6.8 kcal/mol.

Take Q34A: the “ddG of mutation (higher = less stable)” value was 3.66 kcal/mol and the unfolding free energy was 4.23 kcal/mol.

As for V13A, the “ddG of mutation (higher = less stable)” value was determined as 1.69 kcal/mol and the unfolding free energy came to 6.2 kcal/mol.

Turning to P45A, the “ddG of mutation (higher = less stable)” value turned out to be 1.4 kcal/mol and the unfolding free energy turned out to be 6.49 kcal/mol.

Consider P20A, for which the “ddG of mutation (higher = less stable)” value is 1.07 kcal/mol and the unfolding free energy came to 6.82 kcal/mol.

On to Y74A, for which the “ddG of mutation (higher = less stable)” value amounted to 4.83 kcal/mol and the unfolding free energy turned out to be 3.06 kcal/mol.

For Y74F, the “ddG of mutation (higher = less stable)” value is -0.27 kcal/mol and the unfolding free energy is 8.16 kcal/mol.

On to E68A, for which the “ddG of mutation (higher = less stable)” value stood at 0.36 kcal/mol and the unfolding free energy was determined as 7.53 kcal/mol.

Y32N: the “ddG of mutation (higher = less stable)” value was 1.52 kcal/mol and the unfolding free energy stood at 6.37 kcal/mol.

As to K55A, the “ddG of mutation (higher = less stable)” value was determined as 0.86 kcal/mol and the unfolding free energy was 7.03 kcal/mol.

On to K33E, for which the “ddG of mutation (higher = less stable)” value amounted to 1.68 kcal/mol and the unfolding free energy worked out at 6.21 kcal/mol.

As to K33R, the “ddG of mutation (higher = less stable)” value was 1.83 kcal/mol and the unfolding free energy came out at 6.06 kcal/mol.

Turning to K33A, the “ddG of mutation (higher = less stable)” value was found to be 1.02 kcal/mol and the unfolding free energy is 6.87 kcal/mol.

As to L26A, the “ddG of mutation (higher = less stable)” value worked out at 1.02 kcal/mol and the unfolding free energy was 6.87 kcal/mol.

The record behind these values is FireProtDB (doi:10.1021/bi982427c).
